# Substitutions are numbered along the chain they refer to.
# B1: Aq probe (ALDH1 promoter) (dsDNA)
# DNA 1: GGTTGGTTGCATTATCTGGCCCCACCGTAAACAATCAAATGC
# DNA 2: GCATTTGATTGTTTACGGTGGGGCCAGATAATGCAACCAACC
# B2: Dq probe (DBR2 promoter) (dsDNA)
# DNA 1: GTCGCTAAACTTGCCACGGTCCCACTTTTTCAACTCTTATTA
# DNA 2: TAATAAGAGTTGAAAAAGTGGGACCGTGGCAAGTTTAGCGAC
# B3: Dq mutated probe (dsDNA)
# DNA 1: B2 DNA 1 with C21A, C22A, C23A, A24C, C25A
# DNA 2: B2 DNA 2 with G18T, T19G, G20T, G21T, G22T
# Experiments:
# Settings in all cases: protein: recombinant; tags: His-TF (trigger factor), pCold-TF; chain copies: 2; blunt
# AaTCP15 [1] = target: T1, AaTCP15 (Artemisia annua, UniProt A0A8E3YC86 1-384); test: EMSA; cold Aq competitor reduces shift; not given; EMSA as described in Ma et al. 2018; cold competitor 10x, 20x, 40x
# AaTCP15 [2] = target: T1, AaTCP15; test: EMSA; cold Dq competitor reduces shift; not given; EMSA as described in Ma et al. 2018; cold competitor 10x, 20x, 40x
# AaTCP15 [3] = target: T1, AaTCP15; test: EMSA; not given; EMSA as described in Ma et al. 2018; cold competitor 10x, 20x, 40x
# T1 sequence (A0A8E3YC86 entry or part of it): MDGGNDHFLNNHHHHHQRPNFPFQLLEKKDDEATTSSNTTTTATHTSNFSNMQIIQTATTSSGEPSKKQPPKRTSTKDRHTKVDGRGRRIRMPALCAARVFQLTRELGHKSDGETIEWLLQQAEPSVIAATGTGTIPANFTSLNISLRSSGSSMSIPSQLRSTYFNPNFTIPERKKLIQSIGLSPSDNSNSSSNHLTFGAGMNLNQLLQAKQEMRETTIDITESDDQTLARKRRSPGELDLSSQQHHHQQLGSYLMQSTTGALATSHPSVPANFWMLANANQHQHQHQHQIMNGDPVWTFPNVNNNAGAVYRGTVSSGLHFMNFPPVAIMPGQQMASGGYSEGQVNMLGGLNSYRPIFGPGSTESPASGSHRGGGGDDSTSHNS
binder,measurement,setting,value
B1,binding result,AaTCP15 [1],binds
B2,binding result,AaTCP15 [2],binds
B3,binding result,AaTCP15 [3],no binding

# Source: PMC8313134, “Jasmonate‐ and abscisic acid‐activated AaGSW1‐AaTCP15/AaORA transcriptional cascade promotes artemisinin biosynthesis in Artemisia annua”
